Experiments:
PC-3 xenografts = assay: Biodistribution in mice bearing PC-3 xenografts; type: in vivo, mice (BALB/c nu/nu female)
Method: (§1) Instant thin-layer chromatography (ITLC) results were analyzed using Cyclone® Plus (PerkinElmer). […] BALB/c nu/nu female mice were implanted subcutaneously with PC-3 cells in PBS (6.5 × 10^6 cells/mouse) on the hind leg. […] A group of four mice was used per data point. […] After euthanization, the organs of interest were collected and weighed, and the radioactivity content was measured on a gamma counter.

[1] = Biodistribution in mice bearing PC-3 xenografts; type: in vivo, mice (BALB/c nu/nu female); conditions: mouse, in vivo, iv, 40 pmol, 40 pmol i.v., 1 h pi, 4 mice, SD; read-out: activity concentration in blood 1 h pi
Method: as §1

[2] = Thermal melting by circular dichroism; type: physicochemical; conditions: pH 7.4
[3] = target: gastrin-releasing peptide receptor (human (endogenous in PC-3)) (UniProt P30550); assay: radioligand binding
Chain of gastrin-releasing peptide receptor (human (endogenous in PC-3)) (P30550 whole entry): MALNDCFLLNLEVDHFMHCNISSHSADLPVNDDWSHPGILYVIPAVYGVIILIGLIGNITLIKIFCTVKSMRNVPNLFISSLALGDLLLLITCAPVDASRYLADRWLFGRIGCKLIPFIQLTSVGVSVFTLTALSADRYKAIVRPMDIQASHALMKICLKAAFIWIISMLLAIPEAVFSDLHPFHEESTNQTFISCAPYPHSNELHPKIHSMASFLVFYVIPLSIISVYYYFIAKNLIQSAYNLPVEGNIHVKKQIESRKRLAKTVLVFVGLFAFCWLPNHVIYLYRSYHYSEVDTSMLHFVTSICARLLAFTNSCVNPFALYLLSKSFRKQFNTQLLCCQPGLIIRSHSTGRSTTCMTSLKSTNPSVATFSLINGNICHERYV

CC[C@H](C)[C@H](NC(=O)[C@H](Cc1c[nH]cn1)NC(=O)[C@H](CC(C)C)NC(=O)[C@H](CCCCN)NC(=O)[C@H](CC(C)C)NC(=O)[C@H](C)NC(=O)[C@H](CCC(=O)O)NC(=O)[C@@H](NC(=O)CNC(=O)[C@H](CCC(=O)O)NC(=O)[C@@H](NC(=O)[C@@H](NC(=O)[C@H](CCCCN)NC(=O)[C@H](C)NC(=O)[C@H](CCCCN)NC(=O)[C@H](CC(N)=O)NC(=O)[C@@H](NC(=O)[C@H](CC(C)C)NC(=O)[C@H](CCCNC(=N)N)NC(=O)[C@H](CCCCN)NC(=O)[C@H](Cc1ccc(O)cc1)NC(=O)[C@H](Cc1ccccc1)NC(=O)[C@H](CC(=O)O)NC(=O)[C@H](CO)NC(=O)[C@@H](NC(=O)CNC(=O)[C@H](Cc1ccc(O)cc1)NC(=O)[C@H](CCCCNC(=O)CSCCC(=O)NCCOCCOCCOCCOCCC(=O)N[C@H](Cc1ccccc1)C(=O)N[C@@H](CCC(N)=O)C(=O)N[C@@H](Cc1c[nH]c2ccccc12)C(=O)N[C@@H](C)C(=O)N[C@H](C(=O)NCC(=O)N[C@@H](Cc1c[nH]cn1)C(=O)N[C@@H](CC(C)C)[C@@H](O)CC(=O)N[C@@H](CC(C)C)C(N)=O)C(C)C)NC(=O)[C@H](CC(=O)O)NC(=O)[C@H](CC(C)C)NC(=O)[C@H](CCC(=O)O)NC(=O)[C@H](CCCNC(=N)N)NC(=O)[C@H](CC(N)=O)NC(=O)[C@H](C)NC(=O)[C@H](CC(C)C)NC(=O)[C@@H](NC(=O)[C@H](CCCCN)NC(=O)[C@H](C)NC(=O)[C@H](CCC(=O)O)NC(=O)[C@H](C)NC(=O)[C@H](CC(C)C)NC(=O)CN1CCN(CC(=O)O)CCN(CC(=O)O)CCN(CC(=O)O)CC1)C(C)C)C(C)C)[C@@H](C)CC)[C@@H](C)O)C(C)C)C(C)C)C(=O)N[C@@H](CC(C)C)C(=O)N[C@@H](C)C(=O)N[C@@H](C)C(=O)N[C@@H](CC(C)C)C(=O)N1CCC[C@H]1C(N)=O [DOTA-ABD-RM26]
uptake in pancreas, intestines and xenografts, ABD-coupled vs parental RM26 (PC-3 xenografts; 1 h pi, discussion): activity uptake was equal both for ABD-coupled and parental RM26 | kidney uptake vs tumor uptake (PC-3 xenografts; all studied time points, 1-144 h pi): higher than that in tumors at all studied time points | uptake in liver and bone (PC-3 xenografts; up to 144 h pi): elevated up to 144 h pi

CC(C)C[C@H](NC(=O)C[C@H](O)[C@H](CC(C)C)NC(=O)[C@H](Cc1c[nH]cn1)NC(=O)CNC(=O)[C@@H](NC(=O)[C@H](C)NC(=O)[C@H](Cc1c[nH]c2ccccc12)NC(=O)[C@H](CCC(N)=O)NC(=O)[C@@H](Cc1ccccc1)NC(=O)COCCOCCNC(=O)CN1CCN(CC(=O)O)CCN(CC(=O)O)CCN(CC(=O)O)CC1)C(C)C)C(N)=O [[^111In]In-DOTA-RM26, metal not drawn, reference compound]
tissue uptake at 1 h [1]: 0.27 ± 0.04 %ID/g | pancreas and tumor uptake, [^111In]In-DOTA-ABD-RM26 vs [^111In]In-DOTA-RM26 (PC-3 xenografts; 1 h pi): on the same level for both radiolabelled conjugates

AMALAEAKVLANRELDKYGVSDFYKRLINKAKTVEGVEALKLHILAALP [ABD035, recombinant control protein, reference compound]
melting temperature (Tm) [2]: 54 °C

DOTA-ABD-RM26 (designed binder)
IC50 [3]: 30 nM

DOTA-ABD-RM26 bound to human serum albumin (from UniProt P02768 25-609) (complex)
IC50 [3]: 49 nM
